Laboratory results reported in patent US20230242956A1, “POLYPHOSPHATE KINASE MUTANT, ENGINEERED STRAIN AND APPLICATION THEREOF” (ZHEJIANG UNIVERSITY OF TECHNOLOGY, priority 2022, published 2023).
Changes are numbered by the printed parent chain. Names and notes keep the numbering of the source.

B1: Cytophaga hutchinsonii polyphosphate kinase (ChPPK), wild-type, C-terminal 6His tag, SEQ ID NO: 2 (Cytophaga hutchinsonii ATCC 33406) (protein)
chain: MATDFSKLSKYVETLRVKPKQSIDLKKDFDTDYDHKMLTKEEGEELLNLGISKLSEIQEKLYASGTKSVLIVFQAMDAAGKDGTVKHIMTGLNPQGVKVTSFKVPSKIELSHDYLWRHYVALPATGEIGIFNRSHYENVLVTRVHPEYLLSEQTSGVTAIEQVNQKFWDKRFQQINNFEQHISENGTIVLKFFLHVSKKEQKKRFIERIELDTKNWKFSTGDLKERAHWKDYRNAYEDMLANTSTKQAPWFVIPADDKWFTRLLIAEIICTELEKLNLTFPTVSLEQKAELEKAKAELVAEKSSDHHHHHH
B2: Cytophaga hutchinsonii polyphosphate kinase (ChPPK) mutant A79G/S106C/I108F/L285P (parent SEQ ID NO: 2) (Cytophaga hutchinsonii ATCC 33406; … (protein)
chain: B1 chain with A79G, S106C, I108F, L285P

Columns and labels:
[1] = substrate: Nc1ncnc2c1ncn2[C@@H]1O[C@H](COP(=O)(O)O)[C@@H](O)[C@H]1O; assay: Kinetic parameters of wild-type ChPPK (pure enzyme, pseudo-one-substrate kinetic model, ATP by HPLC); format: biochemical, Cytophaga hutchinsonii; conditions: other: substrate AMP, fixed PPA 1.6 g/L, AMP 0-5.0 mM, pH 7.5, 37° C.
Procedure: A PPK protein sequence derived from Cytophaga hutchinsonii (ChPPK, GenBank accession number: ABG57400.1) in GenBank was optimized for E. coli codon preference and fused to a C-terminal 6His tag. The resulting recombinant sequence of the gene ChPPK with a length of 930 bp was synthesized by Tsingke Biotechnology Co., Ltd. (Beijing, China), the nucleotide sequence is shown in SEQ ID NO: 1, and the amino acid sequence of the encoded protein is shown in SEQ ID NO: 2.
(2) Pure enzyme: 5 mL of the crude enzyme solution was diluted with 40 mL of potassium phosphate buffer (20 mM, pH 7.2), and then applied to a HisTrap HP purification column of GE Healthcare (10 mL column, pre-washed with a pH 7.2, 20 mM potassium phosphate buffer containing 500 mM NaCl). […] The concentration of the pure enzyme was determined by Beyotime BCA Protein Assay Kit(P0012), and the amount of the pure enzyme used in the following examples was calculated by protein content.
0.4 mg of the crude enzyme solution prepared by the method in Example 2 or 0.05 mg of the pure enzyme, polyphosphoric acid (PPA) at a final concentration of 1.6 g/L, adenosine phosphate (AMP) at a final concentration of 2.25 mM, and MgCl2 at a final concentration of 10 mM were added to 10 mL of 50 mM potassium phosphate buffer (pH 7.5). […] The ATP content in the solution was determined by HPLC method. […]
(§1) The wild-type Ecoli.BL21(DE3)-ChPPK constructed by the method of Example 1 and the engineered strain Ecoli.BL21(DE3)-ChPPK/A79G/S106C/I108F/L285P constructed by the method of Example 6 were used to prepare pure enzymes by the method of Example 2. Km and Kcat were calculated by pseudo-one-substrate kinetic model. […]

[2] = substrate: Nc1ncnc2c1ncn2[C@@H]1O[C@H](COP(=O)(O)O)[C@@H](O)[C@H]1O; assay: Kinetic parameters of mutant ChPPK/A79G/S106C/I108F/L285P (pure enzyme, pseudo-one-substrate kinetic model, ATP by HPLC); format: biochemical, Cytophaga hutchinsonii; conditions: other: substrate AMP, fixed PPA 1.6 g/L, AMP 0-5.0 mM, pH 7.5, 37° C.
Procedure: (2) Pure enzyme: 5 mL of the crude enzyme solution was diluted with 40 mL of potassium phosphate buffer (20 mM, pH 7.2), and then applied to a HisTrap HP purification column of GE Healthcare (10 mL column, pre-washed with a pH 7.2, 20 mM potassium phosphate buffer containing 500 mM NaCl). The resulting purification column was eluted with 100 mL of washing buffer (a pH7.2, 20 mM potassium phosphate buffer containing 500 mM sodium chloride and 50 mM imidazole) at a rate of 0.5 mL/min to remove the absorbed protein impurities, and then eluted with an elution buffer (a pH7.2, 20 mM potassium phosphate buffer containing 500 mM sodium chloride and 50 mM imidazole) at a speed of 0.5 mL/min to collect an elution solution containing the target protein. Then the elution solution containing the target protein was dialyzed in a dialysis bag (the MWCO of the dialysis bag was 14 KDa) with a pH7.2 of 20 mM potassium phosphate buffer for 48h, and the retentate was taken as pure enzyme. The concentration of the pure enzyme was determined by Beyotime BCA Protein Assay Kit(P0012), and the amount of the pure enzyme used in the following examples was calculated by protein content.
0.4 mg of the crude enzyme solution prepared by the method in Example 2 or 0.05 mg of the pure enzyme, polyphosphoric acid (PPA) at a final concentration of 1.6 g/L, adenosine phosphate (AMP) at a final concentration of 2.25 mM, and MgCl2 at a final concentration of 10 mM were added to 10 mL of 50 mM potassium phosphate buffer (pH 7.5). The reaction solution was incubated at 37° C. for 5 min, and then 10 mL of 0.2 M phosphoric acid solution was added to terminate the reaction. The ATP content in the solution was determined by HPLC method. […]
as §1

| Protein | Km [1] | kcat [1] | kcat/Km [1] | Km [2] | kcat [2] | kcat/Km [2] |
| --- | --- | --- | --- | --- | --- | --- |
| B1 | 1660 ± 100 µM | 1.01 ± 0.05 s⁻¹ | 610 M⁻¹ s⁻¹ |  |  |  |
| B2 |  |  |  | 1670 ± 180 µM | 16.3 ± 1.78 s⁻¹ | 9780 M⁻¹ s⁻¹ |
